Molecular target: HPV 16 E786-93 epitope […] (X aminobutyric acid) presented by HLA-A2.1 (human papilloma virus (HPV) 16; human)

Substance: freshly isolated HLA-A2 positive CD8+ (CTLs) and CD4+ (HTLs) T cells (cells without a defined receptor)
- IFN γ Elispot, frequency of spots (250,000 cells per well): 0.02%
